“Also recorded” adds a separate entry of the source.
How the values were obtained:
Assay type in all cases: cell-based, mice
unfractionated BMMNCs [1] = assay: Immunocytochemistry for Oct-4-positive BMMNCs; details: 21 days, 150 ng/ml
Protocol: Additionally, to assess the influence of Wnt3a on cellular differentiation, unfractionated BMMNCs were cultured separately in the presence of 150 ng/ml of recombinant Wnt3a protein under the same conditions used to culture unfractionated BMMNCs, using pcDNA3/293 cells containing the empty vector as controls (see FIG. 9A).
Immunocytochemistry. Cells were fixed on glass cover-slides with 4% paraformaldehyde for 20 minutes at 4° C. Cells were washed four times and permeabilized with BD PERM/WASH™ (containing saponin; BD Biosciences, San Jose, Calif., United States of America). For immunostaining, separate preparations of BD PERM/WASH™ containing primary monoclonal antibodies against either cardiac troponin T (cTnT; Santa Cruz Biotechnology, Santa Cruz, Calif., United States of America) or cardiac myosin heavy chain (cMyHC; Novus Biologicals, Inc., Littleton, Colo., United States of America) or connexin-43 or Oct-4 were prepared; all primary antibodies, save cMyHC, were purchased from Santa Cruz Biotechnology. Each preparation also contained primary monoclonal antibodies against nestin, glial fibrillary acidic protein (GFAP), CD11B, Gr-1 (myeloid lineage markers), the CD45 epitope, myogenin […]

unfractionated BMMNCs [2] = assay: Assessment of cardiac differentiation by immunocytochemistry (cMyHC, cTnT); details: 21 days of culture
From the text: Induction of differentiation. To assess the influence of ectopic expression of Wnt11 on BMMNC differentiation, Wnt11 conditioned medium (Wnt11-CM) was generated. Specifically, unfractionated BMMNCs were co-cultured with Wnt11-expressing HEK-293 cells (Wnt11/293-2; designated as Wnt11-CM), under the same conditions used to culture BMMNCs. In order to achieve strict separation of cell types during co-culture experiments, BMMNC and Wnt11/293 cells were separated into upper and lower chambers of a TRANSWELL® co-culture system. Wnt11/293-2 or pcDNA3/293 (empty vector) cells (the controls in this experiment) were cultured in the upper chamber on the polyester (PET) membrane of a 24 mm TRANSWELL® insert, and unfractionated BMMNCs were cultured in the lower chamber as described above.
Moreover, to eliminate the possibility of cell fusion or cell-cell contact as a requirement for Wnt11-mediated effects, a membrane pore size of 0.4 μm was chosen, thus preventing egression of Wnt11/293-2 cells to the lower compartment that contained BMMNCs. Of note, TRANSWELL® inserts were maintained separately without cells until day 10 of BMMNC attachment. […]
Assessment of cardiac differentiation. For quantitative assessment of cardiomyocytic differentiation, an average of 2400 cells/plate were counted. Multiple fields from all 4 quarters of the plate were systematically evaluated. […]

unfractionated BMMNCs [3] = assay: Proliferation of unfractionated BMMNCs (Trypan blue cell count); details: cultures initiated with 10^4 cells
Protocol: Assessment of cellular proliferation. To study proliferation within each experimental group, unfractionated BMMNCs (n=1×10^4) were cultured as above in separate experiments (see FIG. 9A). Cells were monitored by phase contrast microscopy during culture in a humidified 5% CO2 incubator at 37° C. for up to 21 days. The medium was replenished every 6 days and expanded cells were harvested by trypsinization and gentle resuspension on days 8, 16, and 21. Cell number and viability was determined by Trypan blue staining, and the fold-increase in cell number over time was analyzed.

unfractionated BMMNCs [4] = assay: qRT-PCR of pluripotency markers Oct-4 and Nanog in cultured BMMNCs; details: BMMNCs cultured 21 days, 150 ng/ml; normalized to 18S rRNA
From the text: Isolation and culture of unfractionated BM-derived mononuclear cells (BMMNCs). For each experiment, two mice were euthanized by CO2 inhalation followed by cervical dislocation and their femurs and tibias were removed and placed in Dulbecco's Modified Eagle Medium/F12 (DMEM/F12; Invitrogen Corp.). The bones were stripped of soft tissue with fine forceps exposing the long bone shafts. The BM was flushed into and suspended in fresh DMEM/F12 using a 23-gauge needle and 5-ml syringe. The BM was further dispersed by repeated passage through the 23-gauge needle for 10 minutes.
After filtering cells through a 70 μm nylon mesh filter, the MNC fraction (BMMNCs) were separated using FICOLL-PAQUE™ (Sigma Aldrich, St. Louis, Mo., United States of America) density-gradient centrifugation as described in (Zuba-Surma et al., 2006). See also FIG. 9A. The viability of unfractionated BMMNCs was assessed by Trypan blue (Sigma Aldrich) staining. Approximately 15×10^6 unfractionated BMMNCs were obtained from each mouse. Adult unfractionated BMMNCs were seeded (n=5×10^5 cells/well) in 6-well tissue culture plates (lower chamber of a 6-well tissue culture TRANSWELL® system; Corning Inc. Life Sciences, Lowell, Mass., United States of America) on fibronectin (FN)-coated glass coverslips (Fischer Scientific). […]
Assessment of mRNA expression by quantitative real-time RT-PCR (qRT-PCR). […]

unfractionated BMMNCs [5] = assay: Immunocytochemistry for pan-hematopoietic marker CD45; details: after 21 days of culture; percent of total cells
Protocol: Immunocytochemistry. Cells were fixed on glass cover-slides with 4% paraformaldehyde for 20 minutes at 4° C. Cells were washed four times and permeabilized with BD PERM/WASH™ (containing saponin; BD Biosciences, San Jose, Calif., United States of America). For immunostaining, separate preparations of BD PERM/WASH™ containing primary monoclonal antibodies against either cardiac troponin T (cTnT; Santa Cruz Biotechnology, Santa Cruz, Calif., United States of America) or cardiac myosin heavy chain (cMyHC; Novus Biologicals, Inc., Littleton, Colo., United States of America) or connexin-43 or Oct-4 were prepared; all primary antibodies, save cMyHC, were purchased from Santa Cruz Biotechnology. Each preparation also contained primary monoclonal antibodies against nestin, glial fibrillary acidic protein (GFAP), CD11B, Gr-1 (myeloid lineage markers), the CD45 epitope, myogenin
These preparations were then applied separately (i.e., mixtures either with cTnT or with cMyHC) or, for co-immunostaining experiments, in combinations to cells for 16 hours at 4° C. and 37° C. for the final hour. […]

B1: Wnt3a: recombinant Wnt3a protein, canonical Wnt, used at 150 ng/ml (protein, UniProt P56704 19-352, looked up)
Protein Wnt-3a: SYPIWWSLAVGPQYSSLGSQPILCASIPGLVPKQLRFCRNYVEIMPSVAEGIKIGIQECQHQFRGRRWNCTTVHDSLAIFGPVLDKATRESAFVHAIASAGVAFAVTRSCAEGTAAICGCSSRHQGSPGKGWKWGGCSEDIEFGGMVSREFADARENRPDARSAMNRHNNEAGRQAIASHMHLKCKCHGLSGSCEVKTCWWSQPDFRAIGDFLKDKYDSASEMVVEKHRESRGWVETLRPRYTYFKVPTERDLVYYEASPNFCEPNPETGSFGTRDRTCNVSSHGIDGCDLLCCGRGHNARAERRREKCRCVFHWCCYVSCQECTRVYDVHTCK
number of Oct-4-positive BMMNCs compared with untreated control (unfractionated BMMNCs [1]): marked increase; also recorded: a much greater number
expression of cardiac-specific contractile proteins (cTnT, cMyHC) (unfractionated BMMNCs [2]): not observed
increase in cell number (unfractionated BMMNCs [3]; day 16): 110±0.1 fold
increase in cell number (unfractionated BMMNCs [3]; day 21): 297±0.1 fold
increase in Nanog mRNA expression compared with baseline (unfractionated BMMNCs [4]): 158±0.6 fold
increase in Oct-4 mRNA expression compared with baseline (unfractionated BMMNCs [4]): 177±0.4 fold
cells positive for CD45 (unfractionated BMMNCs [5]): 69.9±2.9%

Source: patent US20110052551A1, “CARDIAC MYOCYTE MORPHOGENIC COMPOSITIONS AND METHODS OF USE THEREFOR” (priority 2008, published 2011)
